Test results as given in patent EP4803150A2 (Lyvgen Biopharma Holdings Limited, dated 2026).

B1: Ly2846 (multi-specific antibody)
chain 1: QVQLVQSGAEVKKPGASVKVSCKASGYTFTSYVMHWVRQKPGQGLEWIGYINPYNEGTESTDKFKGRATMTSDKSTSTVYMELSSLRSEDTAVYYCASIYYGYEGTYFGVWGQGTLVTVSSASTKGPSVFPLAPSSKSTSGGTAALGCLVKDYFPEPVTVSWNSGALTSGVHTFPAVLQSSGLYSLSSVVTVPSSSLGTQTYICNVNHKPSNTKVDKKVEPKSCGGGGSGGGGSGGGGSGGGGSEVQLVESGGGLVQPGGSLRLSCAASGFTFSTYAMNWVRQAPGKGLEWVGRIRSKYNNYATYYADSVKGRFTISRDDSKNSLYLQMNSLKTEDTAVYYCVRHGNFGNSYVSWFAYWGQGTLVTVSSGGGGSDKTHTCPPCPAPELLGPSVFLFPPKPKDTLMISRTPEVTCVVVDVSHEDPEVKFNWYVDGVEVHNAKTKPREEQYNSTYRVVSVLTVLHQDWLNGKEYKCKVSNKALGAPIEKTISKAKGQPREPQVYTLPPSREEMTKNQVSLWCLVKGFYPSDIAVEWESNGQPENNYKTTPPVLDSDGSFFLYSKLTVDKSRWQQGNVFSCSVMHEALHNHYTQKSLSLSPGKGGGGSGGGGSGGGGSGGGGSQVQLVQSGAEVKKPGASVKVSCKASGYTFTDFWMSWVRQAPGQGLEWMGQIYPNTGTTHSNEKFKGRVTMTRDTSTSTVYMELSSLRSEDTAVYYCARSYHISTTPNWFAYWGQGTLVTVSS
chain 2: QVQLVQSGAEVKKPGASVKVSCKASGYTFTSYVMHWVRQKPGQGLEWIGYINPYNEGTESTDKFKGRATMTSDKSTSTVYMELSSLRSEDTAVYYCASIYYGYEGTYFGVWGQGTLVTVSSASTKGPSVFPLAPSSKSTSGGTAALGCLVKDYFPEPVTVSWNSGALTSGVHTFPAVLQSSGLYSLSSVVTVPSSSLGTQTYICNVNHKPSNTKVDKKVEPKSCGGGGSGGGGSGGGGSGGGGSQAVVTQEPSLTVSPGGTVTLTCRSSTGAVTTSNYANWVQQKPGQAPRGLIGGTNKRAPWTPARFSGSLLGGKAALTITGAQAEDEADYYCALWYSNLWVFGGGTKLTVLGGGGSDKTHTCPPCPAPELLGPSVFLFPPKPKDTLMISRTPEVTCVVVDVSHEDPEVKFNWYVDGVEVHNAKTKPREEQYNSTYRVVSVLTVLHQDWLNGKEYKCKVSNKALGAPIEKTISKAKGQPREPQVYTLPPSREEMTKNQVSLSCAVKGFYPSDIAVEWESNGQPENNYKTTPPVLDSDGSFFLVSKLTVDKSRWQQGNVFSCSVMHEALHNRFTQKSLSLSPGKGGGGSGGGGSGGGGSGGGGSDIQMTQSPSSLSASVGDRVTITCKASQNVYKKLEWYQQKPGKVPKVLIYHTNILQTGVPSRFSGSGSGTDYTLTISSLQPEDVATYYCYQWNSGPTFGGGTKVEIK
chain 3: EIVLTQSPATLSLSPGERATLSCRASSSVSYMHWYQQKPGQAPRPWIYATSNLASGIPARFSGSRSGTDYTLTISSLEPEDFAVYYCQQWSSNTLTFGGGTKVEIKRTVAAPSVFIFPPSDEQLKSGTASVVCLLNNFYPREAKVQWKVDNALQSGNSQESVTEQDSKDSTYSLSSTLTLSKADYEKHKVYACEVTHQGLSSPVTKSFNRGEC
notes: anti-B7H3/CD3/PD-L1
B2: Ly2904 (multi-specific antibody)
chain 1: QVQLVQSGAEVKKPGASVKVSCKASGYTFTSYVMHWVRQKPGQGLEWIGYINPYNEGTESTDKFKGRATMTSDKSTSTVYMELSSLRSEDTAVYYCASIYYGYEGTYFGVWGQGTLVTVSSASTKGPSVFPLAPSSKSTSGGTAALGCLVKDYFPEPVTVSWNSGALTSGVHTFPAVLQSSGLYSLSSVVTVPSSSLGTQTYICNVNHKPSNTKVDKKVEPKSCGGGGSGGGGSGGGGSGGGGSEVQLVESGGGLVQPGGSLRLSCAASGFTFSTYAMNWVRQAPGKGLEWVGRIRSKYNNYATYYADSVKGRFTISRDDSKNSLYLQMNSLKTEDTAVYYCVRHGNFGNSYVSWFAYWGQGTLVTVSSGGGGSDKTHTCPPCPAPELLGPSVFLFPPKPKDTLMISRTPEVTCVVVDVSHEDPEVKFNWYVDGVEVHNAKTKPREEQYNSTYRVVSVLTVLHQDWLNGKEYKCKVSNKALGAPIEKTISKAKGQPREPQVYTLPPSREEMTKNQVSLWCLVKGFYPSDIAVEWESNGQPENNYKTTPPVLDSDGSFFLYSKLTVDKSRWQQGNVFSCSVMHEALHNHYTQKSLSLSPGKGGGGSGGGGSGGGGSGGGGSQVTLKESGPALVKPTQTLTLTCTFSGFSLSTSGTCVSWIRQPPGKALEWLATICWEDSKGYNPSLKSRLTISKDTSKNQAVLTMTNMDPVDTATYYCARREDSGYFWFPYWGQGTLVTVSS
chain 2: QVQLVQSGAEVKKPGASVKVSCKASGYTFTSYVMHWVRQKPGQGLEWIGYINPYNEGTESTDKFKGRATMTSDKSTSTVYMELSSLRSEDTAVYYCASIYYGYEGTYFGVWGQGTLVTVSSASTKGPSVFPLAPSSKSTSGGTAALGCLVKDYFPEPVTVSWNSGALTSGVHTFPAVLQSSGLYSLSSVVTVPSSSLGTQTYICNVNHKPSNTKVDKKVEPKSCGGGGSGGGGSGGGGSGGGGSQAVVTQEPSLTVSPGGTVTLTCRSSTGAVTTSNYANWVQQKPGQAPRGLIGGTNKRAPWTPARFSGSLLGGKAALTITGAQAEDEADYYCALWYSNLWVFGGGTKLTVLGGGGSDKTHTCPPCPAPELLGPSVFLFPPKPKDTLMISRTPEVTCVVVDVSHEDPEVKFNWYVDGVEVHNAKTKPREEQYNSTYRVVSVLTVLHQDWLNGKEYKCKVSNKALGAPIEKTISKAKGQPREPQVYTLPPSREEMTKNQVSLSCAVKGFYPSDIAVEWESNGQPENNYKTTPPVLDSDGSFFLVSKLTVDKSRWQQGNVFSCSVMHEALHNRFTQKSLSLSPGKGGGGSGGGGSGGGGSGGGGSNIQMTQSPSSLSASVGDRVTITCKAGQNVNNYLAWYQQKPGKAPKVLIFNANSLQTGVPSRFSGSGSGTDFTLTISSLQPEDFATYYCQQYNSWPTFGGGTKVEIK
chain 3: B1 chain 3
notes: anti-B7H3/CD3/PD-1
B3: Ly2453 (multi-specific antibody)
chain 1: not shown
chain 2: QVQLVQSGAEVKKPGASVKVSCKASGYTFTDFWMSWVRQAPGQGLEWMGQIYPNTGTTHSNEKFKGRVTMTRDTSTSTVYMELSSLRSEDTAVYYCARSYHISTTPNWFAYWGQGTLVTVSSASTKGPSVFPLAPSSKSTSGGTAALGCLVKDYFPEPVTVSWNSGALTSGVHTFPAVLQSSGLYSLSSVVTVPSSSLGTQTYICNVNHKPSNTKVDKKVEPKSCGGGGSGGGGSGGGGSGGGGSDIQMTQSPSSVSASVGDRVTITCRASQGIYSWLAWYQQKPGKAPNLLIYTASTLQSGVPSRFSGSGSGTDFTLTISSLQPEDFATYYCQQANIFPLTFGGGTKVEIKGGGGSDKTHTCPPCPAPEAAGPSVFLFPPKPKDTLMISRTPEVTCVVVDVSHEDPEVKFNWYVDGVEVHNAKTKPREEQYNSTYRVVSVLTVLHQDWLNGKEYKCKVSNKALPAPIEKTISKAKGQPREPQVYTLPPSREEMTKNQVSLSCAVKGFYPSDIAVEWESNGQPENNYKTTPPVLDSDGSFFLVSKLTVDKSRWQQGNVFSCSVMHEALHNRFTQKSLSLSPG
chain 3: DIQMTQSPSSLSASVGDRVTITCKASQNVYKKLEWYQQKPGKVPKVLIYHTNILQTGVPSRFSGSGSGTDYTLTISSLQPEDVATYYCYQWNSGPTFGGGTKVEIKRTVAAPSVFIFPPSDEQLKSGTASVVCLLNNFYPREAKVQWKVDNALQSGNSQESVTEQDSKDSTYSLSSTLTLSKADYEKHKVYACEVTHQGLSSPVTKSFNRGEC
notes: PD-L1/CD40
B4: Ly2454 (multi-specific antibody, human IgG1, kappa)
chain 1: not shown
chain 2: QVQLVQSGAEVKKPGASVKVSCKASGYTFTDFWMSWVRQAPGQGLEWMGQIYPNTGTTHSNEKFKGRVTMTRDTSTSTVYMELSSLRSEDTAVYYCARSYHISTTPNWFAYWGQGTLVTVSSASTKGPSVFPLAPSSKSTSGGTAALGCLVKDYFPEPVTVSWNSGALTSGVHTFPAVLQSSGLYSLSSVVTVPSSSLGTQTYICNVNHKPSNTKVDKKVEPKSCDKTHTCPPCPAPEAAGPSVFLFPPKPKDTLMISRTPEVTCVVVDVSHEDPEVKFNWYVDGVEVHNAKTKPREEQYNSTYRVVSVLTVLHQDWLNGKEYKCKVSNKALPAPIEKTISKAKGQPREPQVYTLPPSREEMTKNQVSLSCAVKGFYPSDIAVEWESNGQPENNYKTTPPVLDSDGSFFLVSKLTVDKSRWQQGNVFSCSVMHEALHNRFTQKSLSLSPGGGGGSGGGGSGGGGSGGGGSDIQMTQSPSSVSASVGDRVTITCRASQGIYSWLAWYQQKPGKAPNLLIYTASTLQSGVPSRFSGSGSGTDFTLTISSLQPEDFATYYCQQANIFPLTFGGGTKVEIK
chain 3: B3 chain 3
notes: PD-L1/CD40

Tests used:
Assay in all cases: FCM or ELISA, graded
PD-L1 = target: T1, PD-L1 (human, UniProt Q9NZQ7 19-238, limits assumed)
T1 construct: On Raji cells expressing human PD-L1 in the reporter assay
T1 sequence (Q9NZQ7 19-238 limits assumed): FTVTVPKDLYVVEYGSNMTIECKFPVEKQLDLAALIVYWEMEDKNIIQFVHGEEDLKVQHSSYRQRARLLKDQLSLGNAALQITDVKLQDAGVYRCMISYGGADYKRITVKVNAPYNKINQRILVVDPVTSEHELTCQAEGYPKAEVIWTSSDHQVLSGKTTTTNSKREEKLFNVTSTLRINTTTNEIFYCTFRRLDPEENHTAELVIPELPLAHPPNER

PD-1 = target: T2, PD-1 (human, UniProt Q15116 25-167, limits assumed)
T2 construct: On Jurkat T cells expressing human PD-1 in the reporter assay
T2 sequence (Q15116 25-167 limits assumed): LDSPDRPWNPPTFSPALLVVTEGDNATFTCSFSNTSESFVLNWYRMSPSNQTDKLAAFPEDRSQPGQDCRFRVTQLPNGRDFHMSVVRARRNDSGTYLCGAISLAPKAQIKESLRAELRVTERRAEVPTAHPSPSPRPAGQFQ

CD40 = target: T3, CD40 (human, UniProt P25942 21-193)
T3 construct: Whole on GS-H2-huCD40 reporter cells in the reporter assays
T3 sequence (P25942 21-193 limits assumed): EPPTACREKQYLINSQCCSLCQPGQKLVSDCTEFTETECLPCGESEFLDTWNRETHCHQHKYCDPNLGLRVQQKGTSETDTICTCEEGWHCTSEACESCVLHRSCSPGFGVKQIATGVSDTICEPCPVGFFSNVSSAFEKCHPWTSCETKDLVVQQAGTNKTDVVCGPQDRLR

| Binder | binding result (CD40) | other results |
| --- | --- | --- |
| B1 |  | binding result (PD-L1): binds |
| B2 |  | binding result (PD-1): binds |
| B3 | binds |  |
| B4 | binds |  |
